Laboratory results taken from article doi:10.1101/2021.09.12.459968 (bioRxiv, 2021).

Legend:
[1] = target: full-length mouse NLRP3 (FLAG-mScarlet tag removed), double ring cage (mouse, UniProt Q8R4B8 1-1033); test: co-sedimentation
[2] = target: the molecule itself; test: negative-staining electron microscopy

binding result [1]	Binder	binding result [2]
binds	recombinant full-length mouse NEK7 (enzyme) not shown	
	mouse NLRP3 LRRm6 (K970E_Q1001R_F1029A) (natural protein) MTSVRCKLAQYLEDLEDVDLKKFKMHLEDYPPEKGCIPVPRGQMEKADHLDLATLMIDFNGEEKAWAMAVWIFAAINRRDLWEKAKKDQPEWNDTCTSHSSMVCQEDSLEEEWMGLLGYLSRISICKKKKDYCKMYRRHVRSRFYSIKDRNARLGESVDLNSRYTQLQLVKEHPSKQEREHELLTIGRTKMRDSPMSSLKLELLFEPEDGHSEPVHTVVFQGAAGIGKTILARKIMLDWALGKLFKDKFDYLFFIHCREVSLRTPRSLADLIVSCWPDPNPPVCKILRKPSRILFLMDGFDELQGAFDEHIGEVCTDWQKAVRGDILLSSLIRKKLLPKASLLITTRPVALEKLQHLLDHPRHVEILGFSEAKRKEYFFKYFSNELQAREAFRLIQENEVLFTMCFIPLVCWIVCTGLKQQMETGKSLAQTSKTTTAVYVFFLSSLLQSRGGIEEHLFSDYLQGLCSLAADGIWNQKILFEECDLRKHGLQKTDVSAFLRMNVFQKEVDCERFYSFSHMTFQEFFAAMYYLLEEEAEGETVRKGPGGCSDLLNRDVKVLLENYGKFEKGYLIFVVRFLFGLVNQERTSYLEKKLSCKISQQVRLELLKWIEVKAKAKKLQWQPSQLELFYCLYEMQEEDFVQSAMDHFPKIEINLSTRMDHVVSSFCIKNCHRVKTLSLGFFHNSPKEEEEERRGGRPLDQVQCVFPDTHVACSSRLVNCCLTSSFCRGLFSSLSTNRSLTELDLSDNTLGDPGMRVLCEALQHPGCNIQRLWLGRCGLSHQCCFDISSVLSSSQKLVELDLSDNALGDFGIRLLCVGLKHLLCNLQKLWLVSCCLTSACCQDLALVLSSNHSLTRLYIGENALGDSGVQVLCEKMKDPQCNLQKLGLVNSGLTSICCSALTSVLKTNQNFTHLYLRSNALGDTGLRLLCEGLLHPDCKLQMLELDNCSLTSHSCWNLSTILTHNHSLRELNLGNNDLGDLCVVTLCEVLKQQGCLLQSLRLGEMYLNRETKRALEALQEEKPELTIVAEISW	binds
